{"source": "patent US20050196380A1", "about": "“Method for delivering therapeutic proteins to the intradermal compartment” (priority 2004, published 2005)", "molecules": {"B1": {"name": "GCSF: human granulocyte colony stimulating factor (GCSF) (Neupogen) (protein, chains of the INN, looked up)", "chain": "MTPLGPASSLPQSFLLKCLEQVRKIQGDGAALQEKLCATYKLCHPEELVLLGHSLGIPWAPLSSCPSQALQLAGCLSQLHSGLFLYQGLLQALEGISPELGPTLDTLQLDVADFATTIWQQMEELGMAPALQPTQGAMPAFASAFQRRAGGVLVASHLQSFLEVSYRVLRHLAQP"}}, "key": {"[1]": {"experiment": "ID vs SC infusion of PTH, weight normalized PTH plasma levels", "format": "in vivo", "method": "An ID administration experiment was conducted using a peptide drug entity: human parathyroid hormone 1-34 (PTH). […] Control SC infusion was through a standard 31-gauge needle inserted into the SC space lateral to the skin using a “pinch-up” technique. ID infusion was through dermal access microdevice design SSB1—30 (a stainless steel 30-gauge needle bent at the tip at a 90° angle such that the available length for skin penetration was 1-2 mm). The needle outlet (the tip of the needle) was at a depth of 1.7-2.0 mm in the skin when the needle was inserted. A 0.64 mg/mL PTH solution was infused at a rate of 75 μL/hr. Flow rate was controlled via a Harvard syringe pump."}, "[2]": {"experiment": "Bolus ID vs SC insulin in diabetic Yucatan Mini swine, serum insulin levels", "format": "in vivo", "conditions": "for PK profiles for regular and fast-acting insulin by the ID route / uptake by ID route compared with Lispro given by the traditional SC route: SS3_34", "method": "Lilly Lispro is regarded as fast acting insulin, and has a slightly altered protein structure relative to native human insulin. Hoechst regular insulin, maintains the native human insulin protein structure that is chemically similar, but has slower uptake than Lispro when administered by the traditional SC route. Both insulin types were administered in bolus via the ID route to determine if any differences in uptake would be discernable by this route. 5 U of either insulin type were administered to the ID space using dermal access microdevice design SS3—34.\nThus, 5 U of Lilly Lispro fast-acting insulin was administered using dermal access design SS3—34. Additional microdevices of the same needle array configuration were fabricated whereby exposed needle lengths of the microdevice array, were lengthened to include arrays with needles lengths of 2 and 3 mm. The average total dermal thickness in Yucatan Mini swine ranges from 1.5-2.5 mm. Therefore insulin deposition is expected to be into the dermis, approximately at the dermal/SC interface, and below the dermis and within the SC for 1 mm, 2 mm, and 3 mm length needles respectively. Bolus insulin administration was as described in Example 6.2.\nBolus delivery of Lantus long-acting insulin was delivered via the ID route. Lantus is an insulin solution that forms microprecipitates at the administration site upon injection. […] Lantus insulin (10 U dose, 100 μL) was administered to diabetic Yucatan Mini pigs using the dermal access design SS3—34 and by the standard SC method as previously described. […] More importantly this supports the fact that the biological clearance mechanism in the body is not appreciably changed by the administration route, nor is the way in which that the drug substance is utilized. This is extremely important for drugs compounds that have a long circulating half-life (examples would be large soluble receptor compounds or other antibodies for cancer treatment, or chemically modified species such as PEGylated drugs)."}, "blood glucose [3]": {"tested_on": "blood glucose", "experiment": "Bolus ID vs SC insulin in diabetic Yucatan Mini swine, blood glucose", "conditions": "bolus 10 U, 100 μL", "description": "Bolus delivery of Lilly Lispro fast acting insulin was performed using ID and SC bolus administration. The ID injection microdevice was dermal access array design SS3—34.10 international insulin units (U) corresponding to 100 μL volume respectively, were administered to diabetic Yucatan Minis swine. Test animals had been previously been rendered diabetic by chemical ablation of pancreatic islet cells, and were no longer able to secrete insulin. Test animals received their insulin injection either via the microneedle array or via a standard 30 G×½ in. needle inserted laterally into the SC tissue space. Circulating serum insulin levels were detected using a commercial chemiluminescent assay kit (Immulite, Los Angeles, Calif.) and blood glucose values were determined using blood glucose strips. ID injections were accomplished via hand pressure using an analytical microsyringe and were administered over approximately 60 sec."}, "blood glucose [4]": {"tested_on": "blood glucose", "experiment": "Slow-infusion ID insulin delivery in swine, blood glucose response", "conditions": "ID infusion 2 U/hr, relative to negative controls and SC infusion", "excerpt": "The distal end of the microneedle was placed into the plastic catheter and cemented in place with epoxy resin to form a depth-limiting hub. The needle outlet was positioned approximately 1 mm beyond the epoxy hub, thus limiting penetration of the needle outlet into the skin to approximately 1 mm, which corresponds to the depth of the intradermal space in swine. The catheter was attached to a MiniMed 507 insulin pump for control of fluid delivery. The distal end of the microneedle was placed into the plastic catheter and cemented in place with epoxy resin to form a death-limiting hub. The needle outlet was positioned approximately 1 mm beyond the epoxy hub, thus limiting penetration of the needle outlet into the skin to approximately 1 mm, which corresponds to the depth of the intradermal space in swine. […] The catheter was connected to an-external insulin infusion pump (MiniMed 507) via the integral Luer connection at the catheter outlet. The pump was filled with Humalog™ (Lispro) insulin (Eli Lilly, Indianapolis, Ind.) and the catheter and microneedle were primed with insulin according to the manufacturer's instructions. […] Blood samples were periodically withdrawn and analyzed for serum insulin concentration and blood glucose values."}, "[5]": {"experiment": "Slow-infusion ID vs SC insulin delivery in swine, serum insulin pharmacokinetics", "format": "in vivo", "method": "Pharmacokinetic parameters of the delivered substances in accordance with the methods of the invention may be determined using methods known to one skilled in the art. An exemplary pharmacokinetic analysis of infusion data of a substance, e.g., insulin, delivered in accordance with the methods of the invention is carried out as follows. Stepwise nonlinear least-squares regression is used to analyze the insulin concentration-time data from each individual animal. Initially, an empirical biexponential equation is fit to the insulin concentration-time data for the negative control condition. This analysis assumes first-order release of residual insulin, and recovers parameters for the first-order rate constant for release, the residual insulin concentration at the release site, a lag time for release, and a first-order rate constant for elimination of insulin from the systemic circulation. The parameters recovered in this phase of the analysis are of no intrinsic importance, but merely account for the fraction of circulating insulin derived from endogenous sources.\nThe second step of the analysis involves fitting an explicit compartmental model to the insulin concentration-time data during and after subcutaneous or intradermal infusion. The scheme upon which the mathematical model is based is shown in the upper part of FIG. 1. Infusion of insulin proceeds from t=−0 to t=240-min; after a lag-time (tlag,2) absorption from the infusion site is mediated by a first-order process governed by the absorption rate constant ka. Insulin absorbes into the systemic circulation, distributes into an apparent volume V contaminated by an unknown fractional bioavailability F, and is eliminated according to a first-order rate constant K. The fitting routine recovered estimates of tlag,2, ka, V/F, and K; parameters associated with the disposition of endogenous insulin (CR, tlag,1, kR), which are recovered in the first step of the analysis, are treated as constants. Parameter estimates are reported as mean±SD. The significance of differences in specific parameters between the two different modes of insulin administration (subcutaneous versus intradermal infusion) are assessed with the paired Student's t-test."}, "[6]": {"experiment": "Bolus ID delivery of GCSF to Yucatan minipigs, plasma GCSF by ELISA", "format": "in vivo", "conditions": "bolus ID relative to SC", "method": "(§1) Bolus ID delivery of human granulocyte colony stimulating factor (GCSF) (Neupogen) was administered via dermal access microdevice designs SS3—34B (array) or SS1—34 (single needle) to Yucatan minipigs. Delivery rate was controlled via a Harvard syringe pump and was administered over a 1-2.5 min period. […] Administration via IV and SC delivery was performed as controls."}, "[7]": {"tested_on": "white blood cell (WBC) counts", "experiment": "White blood cell expansion after GCSF administration", "format": "in vivo, Yucatan minipigs", "conditions": "ID, SC and IV delivery vs negative control", "method": "as §1"}, "[8]": {"conditions": "4 hour infusion, 0.64 mg/mL at 75 μL/hr"}, "[9]": {"conditions": "bolus 10 U, 100 μL, SS3_34 array vs SC needle"}}, "data": [{"molecule": "PTH: peptide drug entity: human parathyroid hormone 1-34", "values": [{"measurement": "plasma level following termination of infusion, ID", "setting": "[1]; 2 hour clearance after 4 hour infusion", "value": "rapid decrease"}, {"measurement": "area under the curve (AUC) of weight normalized plasma level, ID vs SC", "setting": "[1]; [8]", "value": "larger area under the curve"}, {"measurement": "peak values at earlier sampling timepoints (15 and 30 min), ID vs SC", "setting": "[1]; [8]", "value": "higher peak values"}]}, {"molecule": "Hoechst regular insulin: regular insulin that maintains the native human insulin protein structure", "values": [{"measurement": "PK profiles for regular and fast-acting insulin by the ID route", "setting": "[2]; bolus 5 U", "value": "essentially identical"}, {"measurement": "uptake by ID route compared with Lispro given by the traditional SC route", "setting": "[2]; bolus 5 U", "value": "faster uptake"}]}, {"molecule": "Lispro", "values": [{"measurement": "PK profiles for regular and fast-acting insulin by the ID route", "setting": "[2]; bolus 5 U", "value": "essentially identical"}, {"measurement": "uptake by ID route compared with Lispro given by the traditional SC route", "setting": "[2]; bolus 5 U", "value": "faster uptake"}, {"measurement": "PK profile as microneedle length is increased", "setting": "[2]; bolus 5 U, needle lengths 1, 2 and 3 mm", "value": "more closely resemble SC administration"}, {"measurement": "maximum concentration obtained (Cmax), ID vs SC", "setting": "[2]; [9]", "value": "higher"}, {"measurement": "time to maximum concentration (Tmax), ID vs SC", "setting": "[2]; [9]", "value": "shorter"}, {"measurement": "decrease in blood glucose (BG), ID vs SC", "setting": "blood glucose [3]", "value": "faster and greater changes in BG"}, {"measurement": "blood glucose drop", "setting": "blood glucose [4]", "value": "improved relative to conventional SC infusion"}, {"measurement": "lag time prior to absorption (tlag)", "setting": "[5]; ID infusion, 2 U/hr for 4 hr", "value": 0.88, "unit": "min"}, {"measurement": "rate of uptake from the administration site, ka", "setting": "[5]; ID infusion, 2 U/hr for 4 hr", "value": 0.0666, "unit": "min⁻¹"}, {"measurement": "bioavailability, ID relative to SC administration", "setting": "[5]; ID relative to SC infusion", "value": "approximately 1.3 fold"}, {"measurement": "increase of rate of uptake from the administration site, ID vs SC", "setting": "[5]; ID relative to SC infusion", "value": "approximately 3 fold"}, {"measurement": "lag time prior to absorption (tlag)", "setting": "[5]; SC infusion", "value": 13.6, "unit": "min"}, {"measurement": "rate of uptake from the administration site, ka", "setting": "[5]; SC infusion", "value": 0.0225, "unit": "min⁻¹"}]}, {"molecule": "Lantus", "values": [{"measurement": "\"burst\" immediately after the ID insulin delivery, relative to SC", "setting": "[2]; bolus 10 U dose, 100 μL", "value": "slightly higher"}]}, {"molecule": "B1", "values": [{"measurement": "bioavailability increase (AUC), ID vs SC", "setting": "[6]", "value": "approximately 2 fold"}, {"measurement": "white blood cell expansion (PD outcome)", "setting": "[7]", "value": "approximately equal PD outcomes"}]}]}
